In patent EP3733708A1:

How the values were obtained:
[1] = target: Recombinant Human PD-1 (R&D Systems Inc) (human) (UniProt Q15116); test: ELISA blocking, PD-1 coated, biotinylated PD-L1Fc, streptavidin-HRP; antibody at 1000 ng/ml
[2] = target: Recombinant Human PD-1 (R&D Systems Inc) (human) (UniProt Q15116); test: ELISA blocking, PD-1 coated, biotinylated PD-L1Fc, streptavidin-HRP; antibody at 100 ng/ml
[3] = target: Recombinant Human PD-1 (R&D Systems Inc) (human) (UniProt Q15116); test: ELISA blocking, PD-1 coated, biotinylated PD-L1Fc, streptavidin-HRP; antibody at 10000 ng/ml
[4] = target: Recombinant Human PD-1 (R&D Systems Inc) (human) (UniProt Q15116); test: ELISA blocking, PD-1 coated, biotinylated PD-L1Fc, streptavidin-HRP; antibody at 1 ng/ml
[5] = target: Recombinant Human PD-1 (R&D Systems Inc) (human) (UniProt Q15116); test: second ELISA blocking assay, PD-1 / PD-L1Fc; reference: unlinked mix of 9E3 and 3H4
[6] = target: Recombinant Human PD-1 (R&D Systems Inc) (human) (UniProt Q15116); test: ELISA blocking, PD-1 coated, biotinylated PD-L1Fc, streptavidin-HRP; antibody at 0.01 ng/ml
[7] = target: Recombinant Human PD-1 (R&D Systems Inc) (human) (UniProt Q15116); test: ELISA blocking, PD-1 coated, biotinylated PD-L1Fc, streptavidin-HRP; antibody at 0.001 ng/ml
[8] = target: Recombinant Human PD-1 (R&D Systems Inc) (human) (UniProt Q15116); test: ELISA blocking, PD-1 coated, biotinylated PD-L1Fc, streptavidin-HRP; antibody at 0.1 ng/ml
[9] = target: Recombinant Human PD-1 (R&D Systems Inc) (human) (UniProt Q15116); test: ELISA blocking, PD-1 coated, biotinylated PD-L1Fc, streptavidin-HRP; antibody at 10 ng/ml

UniProt Q15116, sequence (Q15116 25-167 limits assumed): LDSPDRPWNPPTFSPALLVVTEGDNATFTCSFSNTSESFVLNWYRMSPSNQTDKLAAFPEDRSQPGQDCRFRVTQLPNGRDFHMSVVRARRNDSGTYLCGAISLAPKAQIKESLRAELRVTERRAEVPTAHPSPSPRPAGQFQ

blocking ELISA signal (PD-L1Fc bound to PD-1) [1]	blocking ELISA signal (PD-L1Fc bound to PD-1) [2]	blocking ELISA signal (PD-L1Fc bound to PD-1) [3]	blocking ELISA signal (PD-L1Fc bound to PD-1) [4]	fold increase in blocking against a simple mix of 9E3 and 3H4 [5]	blocking ELISA signal (PD-L1Fc bound to PD-1) [6]	blocking ELISA signal (PD-L1Fc bound to PD-1) [7]	blocking ELISA signal (PD-L1Fc bound to PD-1) [8]	blocking ELISA signal (PD-L1Fc bound to PD-1) [9]	Binder
0.103	0.197	0.102	1.09	> 10 fold	1.12	1.11	1.1	0.947	Bispecific clone GS388 (9E3-17aa-3H4) (bispecific antibody) QLQLVEFGGGLVQAGGSLRLSCAASGSIFRGNAMVWYRQAPGKERELVATITNGGSTNYADSVKGRFTISRDNAKNTVYLQMNSLKPEDTAIYYCNDVIRGESGIYYPLNYWGQGTQVTVSSGGSEGGGSGGGGESGGGQVQFVESGGGLVQPGGSLRLSCAVSGSTFVVKHFAWFRQPPGNRRELVAATRGEGTTYYRDSVMGRFTISSDNPENTVYLQMTSLQPEDTAVYFCNVRSPGGEEFWGKGTLVTVSS
0.457	0.965	0.104	1.06	–	1.11	1.17	1.08	1.09	9E3 single domain antibody (VHH) VHH: QLQLVEFGGGLVQAGGSLRLSCAASGSIFRGNAMVWYRQAPGKERELVATITNGGSTNYADSVKGRFTISRDNAKNTVYLQMNSLKPEDTAIYYCNDVIRGESGIYYPLNYWGQGTQVTVSS
0.927	0.964	0.833	1.06	–	1.08	1.11	1.07	1.1	3H4 single domain antibody (VHH) VHH: QVQFVESGGGLVQPGGSLRLSCAVSGSTFVVKHFAWFRQPPGNRRELVAATRGEGTTYYRDSVMGRFTISSDNPENTVYLQMTSLQPEDTAVYFCNVRSPGGEEFWGKGTLVTVSS
